Measurements reported in the nanobody polyreactivity screen of Harvey et al. (2022).

assay: yeast display, Sf9 membrane polyspecificity reagent, FACS + sequencing; frameworks hold sequencing errors
In short: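 Genes from sorted yeast were amplified by colony PCR, read by MiSeq 2 × 250 sequencing and filtered on CDR length. These cells carried a synthetic nanobody library in Saccharomyces cerevisiae BJ5465 and were sorted by FACS into low and high (top ~1%) gates on anti-HA and streptavidin fluorescence. Polyreactivity is labelled according to the gate of origin.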

Sequence	polyreactivity (PSR sort gate)
QVQLVESGGGLVQAGGSLRLSCAASGIIIRKYAMGWYRQAPGKERELVAAITTRGSRTYYADSVKGRFTISRDNAKNTVYFEMNSLKPEDTAVYYCAADFGYAWWWYDTYGYWGQGTQVTVSS	high polyreactivity
QVQLVESGGGLVQAGGSLRLSCAASGIIIRKYAMGWYRQAPGKERELVAAITTRGSRTYYADSVKGRFTISRDNAKNTVYLQMNSLKPEDTAVYYCAADFGYAWWWYDTYGYWGQGTQVTVSS	high polyreactivity
QVQLVESGGGLVQAGGSLRLSCAASGIIISLYAMGWYSQAPGKERELVATISTGGGTYYADSVKGRFTISRDNAKNTVYLQINSLKPEDTAVYYCAARRSYYGRSYYYWGQGTQVTVSS	high polyreactivity
QVQLVESGGGLVQAGGSLRLSCAASGIIIWTNVMGWYRQAPGKEREFVAAISRSGGSTYYADSVKGRFTISRDNAKNTVYLQMNSLKPEDTAVYYCAARLSYSVQKFDYWGQGTQVTVSS	high polyreactivity
QVQLVESGGGLVQAGGSLRLSCAASGIIIYNYTMGWYRQAPGKERELVAAISRSGGRTYYADSVKGRFTISRDNAKNNVYLQMNSLKPEDTAVYYCAAAGYYHTYWGTMDFWGQGTQVTVSS	high polyreactivity
QVQLVESGGGLVQAGGSLRLSCAASGIILAHYAMGWYRQAPGKERELVAGISRSGTRTYYADSVKGRFTISRDNAKNTVYLQMNSLKPEDTAVYYCNKDAYTYWYFEMGYWGQGTQVTVSS	high polyreactivity
QVQLVESGGGLVQAGGSLRLSCAASGIILATYAMGLYRQAPGKEMELVAAISWSGGRTYYADSVKGRFTISRDKAKNTVYLQMNSLKPEDTAVYYCNAAYPAYGRTQYGRYDYWGQGTQVTVSS	high polyreactivity
QVQLVESGGGLVQAGGSLRLSCAASGIILGSYAMGWYRQAPGTERELVAGITSGGGTYYADSVKGRFTISRDNAKNTVYLQMNSLKPEDTAVYYCAKLYFHYYRYGYWGQGTQVTVSS	low polyreactivity
QVQLVESGGGLVQAGGSLRLSCAASGIILHGYAMGWYRQAAGKEREFVATITVSGSSTYYADSVKGRFTISRDNAKNTVYLQMNSLKPEDTAVYYCAARSWVIVYGLQYDYWGQGTQETVSS	high polyreactivity
QVQLVESGGGLVQAGGSLRLSCAASGIILIHNAMGWYRQARGKERELVAAISTRGGRTYYADSVKGRFTISRDNAKNTVYLQMNSLKPEDTAVYYCAAYRTTPYRDYKMDYLGQGTQVTVSS	high polyreactivity
QVQLVESGGGLVQAGGSLRLSCAASGIILKRNAMGWYRQAPGKERELVAAITSGGTTSYADSVKGRFTISRDNAKNTVYLQLNSLKPEDTAVYYCATRKPVSVYRFAPVYKNSNYWGQGTQVTVSS	high polyreactivity
QVQLVESGGGLVQAGGSLRLSCAASGIILPTYVMGWYRQAPGKERELVAAISRRGGSTYYADSVKGRFTISRDNAKNTVYLQMNSLKPEDTAVYYCNAVSNPVGSAYDYWGQGTQVTVSS	high polyreactivity
QVQLVESGGGLVQAGGSLRLSCAASGIILPYYAMGWYRPAPGKEREFVATISSDGTSTYYADSVKGRFTISRDNAKNTVYLQMNSLKPEDTAVYYCDARIRQNPGGDNSWGQGTQVTVSS	low polyreactivity
QVQLVESGGGLVQAGGSLRLSCAASGIILPYYAMGWYRQAPGKEREFVATISSDGTSTYYADSVKGRFTISRDNAKNTVYLQMNSLKPEDTAVYYCAARIRQNPGGDNSWGQGTQVTVSS	low polyreactivity
QVQLVESGGGLVQAGGSLRLSCAASGIILQKYTMGWYRQAPGKERELVAASTRSGGSTYYADSVKGRFTISRDNAKNTVYLQMNSLKPEDTAVYYCYGYEYWGQGTQVTVSS	high polyreactivity
QVQLVESGGGLVQAGGSLRLSCAASGIILVAYAMGWYRPAPGKERELVAAITTSGTSTYYADSVKGRFTISRDNAKNTVYVQMNSLTPEDTAVYYCAVRQRYGPARYDYWGQGTQVTVSS	high polyreactivity
